Assay results published in US20240115668A1 (KOLON TISSUEGENE, published 2024).
Blank lines part the entries; values can stand above or below the binder they belong to.

Biological target: Recombinant human PTEN protein (human, UniProt P60483 1-403 (dog entry), limits assumed)
Assay: cell-based or functional assay

Recombinant human PTEN protein, sequence (P60483 whole entry): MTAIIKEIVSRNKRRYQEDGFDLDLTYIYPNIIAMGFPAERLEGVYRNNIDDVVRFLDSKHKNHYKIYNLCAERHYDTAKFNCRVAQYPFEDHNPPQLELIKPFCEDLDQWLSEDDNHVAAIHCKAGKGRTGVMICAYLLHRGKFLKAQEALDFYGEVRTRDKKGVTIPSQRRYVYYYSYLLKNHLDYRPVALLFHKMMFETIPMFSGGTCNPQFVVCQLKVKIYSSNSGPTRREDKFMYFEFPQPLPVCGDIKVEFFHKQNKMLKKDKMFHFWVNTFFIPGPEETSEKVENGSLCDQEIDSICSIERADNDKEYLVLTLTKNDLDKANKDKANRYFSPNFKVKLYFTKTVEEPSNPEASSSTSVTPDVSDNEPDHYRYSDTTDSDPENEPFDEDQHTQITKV

PTEN activity remaining with 10 µM peptide, compared with positive control (in vitro PTEN activity assay): 54%
B1: TGN-1 peptide (peptide)
peptide: RRRRRRRRVTPDVSDNEPDHYRYSDTTDSDPE
modifications: three phosphorylated Serine residues (pS; PTEN Ser370, Ser380 and Ser385 = peptide positions 14, 24 and 29); C-terminal amide

IC50, in vitro PTEN activity assay (lipid phosphatase, C8-PIP3 liposomes, Malachite Green): 87.1 µM | PTEN activity remaining with 10 µM peptide, compared with positive control (in vitro PTEN activity assay): 86%
Binder: RRRRRRRRHYRYVDTTDVDPENEPFDEDQHTQITKV (C-terminal amide) [TGN-3 peptide]

PTEN activity remaining with 10 µM peptide, compared with positive control (in vitro PTEN activity assay): 31%
B2: TGN-2 peptide (peptide)
peptide: RRRRRRRRHYRYSDTTDSDPENEPFDEDQHTQITKV
modifications: two phosphorylated Serine residues (pS; PTEN Ser380 and Ser385 = peptide positions 13 and 18); C-terminal amide
